This assay concerns the target T1, Recombinant human PDZD8 (1, 28–)—FLAG (human, UniProt Q8NEN9 1-1154, (1, 28–), ∆TM).
T1 sequence (looked up): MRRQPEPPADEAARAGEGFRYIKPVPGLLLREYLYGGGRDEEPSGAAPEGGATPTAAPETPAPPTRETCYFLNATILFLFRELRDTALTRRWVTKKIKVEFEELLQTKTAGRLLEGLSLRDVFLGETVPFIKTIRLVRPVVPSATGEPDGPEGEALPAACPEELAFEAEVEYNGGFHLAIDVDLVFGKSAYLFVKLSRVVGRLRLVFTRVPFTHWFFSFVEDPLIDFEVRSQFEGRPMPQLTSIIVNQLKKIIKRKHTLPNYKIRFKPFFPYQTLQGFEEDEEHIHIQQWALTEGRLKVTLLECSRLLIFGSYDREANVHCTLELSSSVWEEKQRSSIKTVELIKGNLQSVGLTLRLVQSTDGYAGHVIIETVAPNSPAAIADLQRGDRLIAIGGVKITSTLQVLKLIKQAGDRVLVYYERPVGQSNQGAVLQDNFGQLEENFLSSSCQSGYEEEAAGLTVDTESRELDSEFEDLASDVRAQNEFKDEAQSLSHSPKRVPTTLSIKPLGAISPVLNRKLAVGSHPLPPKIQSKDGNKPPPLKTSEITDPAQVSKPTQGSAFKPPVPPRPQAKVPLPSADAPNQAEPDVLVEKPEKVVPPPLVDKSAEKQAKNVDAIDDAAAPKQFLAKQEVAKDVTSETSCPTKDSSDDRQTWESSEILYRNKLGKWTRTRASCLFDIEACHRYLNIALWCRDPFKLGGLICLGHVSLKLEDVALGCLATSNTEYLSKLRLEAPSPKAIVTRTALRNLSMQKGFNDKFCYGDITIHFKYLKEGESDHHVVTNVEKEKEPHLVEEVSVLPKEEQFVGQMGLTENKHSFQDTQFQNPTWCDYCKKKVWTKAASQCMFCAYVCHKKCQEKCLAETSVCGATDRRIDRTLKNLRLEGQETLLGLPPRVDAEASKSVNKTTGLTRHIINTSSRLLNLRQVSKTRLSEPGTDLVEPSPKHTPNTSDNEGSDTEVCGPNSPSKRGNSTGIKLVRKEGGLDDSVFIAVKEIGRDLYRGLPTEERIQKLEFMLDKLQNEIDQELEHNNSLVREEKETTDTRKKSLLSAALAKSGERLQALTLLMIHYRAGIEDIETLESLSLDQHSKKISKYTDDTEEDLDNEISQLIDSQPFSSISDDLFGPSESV
The assay can be described thus: SPR. A general note: Surface plasmon resonance follows binding to a sensor surface in real time, without labels.

One may read the Kd as the free concentration of one partner at which half of the binding sites on the other are occupied at equilibrium, for simple one-to-one binding.

B1: Recombinant human FKBP8 (1–380)—Histag (domain or fragment, UniProt Q14318 1-380, looked up)
chain: MASCAEPSEPSAPLPAGVPPLEDFEVLDGVEDAEGEEEEEEEEEEEDDLSELPPLEDMGQPPAEEAEQPGALAREFLAAMEPEPAPAPAPEEWLDILGNGLLRKKTLVPGPPGSSRPVKGQVVTVHLQTSLENGTRVQEEPELVFTLGDCDVIQALDLSVPLMDVGETAMVTADSKYCYGPQGRSPYIPPHAALCLEVTLKTAVDGPDLEMLTGQERVALANRKRECGNAHYQRADFVLAANSYDLAIKAITSSAKVDMTFEEEAQLLQLKVKCLNNLAASQLKLDHYRAALRSCSLVLEHQPDNIKALFRKGKVLAQQGEYSEAIPILRAALKLEPSNKTIHAELSKLVKKHAAQRSTETALYRKMLGNPSRLPAKCPG
With B1, the dissociation constant (Kd) came out at 142 µM.

For the origin of these results see publication PMC12006300 (Nature Communications, 2025).
